Data: patent US20240115701A1

Assays:
[1] = biological target: MabSelect Sure Protein A ligand (protein A resin, GE Healthcare); assay: batch resin-slurry partitioning on MabSelect Sure protein A resin; Elute: 20 mM NaAcetate, pH 3.5; reference mAb1
[2] = biological target: MabSelect Sure Protein A ligand (protein A resin, GE Healthcare); assay: batch resin-slurry partitioning on MabSelect Sure protein A resin; Strip: 100 mM acetic acid
[3] = biological target: MabSelect Sure Protein A ligand (protein A resin, GE Healthcare); assay: batch resin-slurry partitioning on MabSelect Sure protein A resin; High salt wash: 10 mM NaPhosphate, pH 6.5, 0.5M NaCl
[4] = biological target: MabSelect Sure Protein A ligand (protein A resin, GE Healthcare); assay: batch resin-slurry partitioning on MabSelect Sure protein A resin; Elute: 20 mM NaAcetate, pH 3.5; reference mAb2
[5] = biological target: MabSelect Sure Protein A ligand (protein A resin, GE Healthcare); assay: batch resin-slurry partitioning on MabSelect Sure protein A resin; Equil/wash: 10 mM NaPhosphate, pH 6.5; reference mAb1
[6] = biological target: MabSelect Sure Protein A ligand (protein A resin, GE Healthcare); assay: batch resin-slurry partitioning on MabSelect Sure protein A resin; Equil/wash: 10 mM NaPhosphate, pH 6.5
[7] = biological target: MabSelect Sure Protein A ligand (protein A resin, GE Healthcare); assay: partitioning on protein A resin under loading conditions; reference mAb3
[8] = biological target: MabSelect Sure Protein A ligand (protein A resin, GE Healthcare); assay: batch resin-slurry partitioning on MabSelect Sure protein A resin; Equil/wash: 10 mM NaPhosphate, pH 6.5; reference mAb2
[9] = biological target: MabSelect Sure Protein A ligand (protein A resin, GE Healthcare); assay: batch resin-slurry partitioning on MabSelect Sure protein A resin; Elute: 20 mM NaAcetate, pH 3.5
[10] = biological target: MabSelect Sure Protein A ligand (protein A resin, GE Healthcare); assay: batch resin-slurry partitioning on MabSelect Sure protein A resin; High salt wash: 10 mM NaPhosphate, pH 6.5, 0.5M NaCl; reference mAb1
[11] = biological target: MabSelect Sure Protein A ligand (protein A resin, GE Healthcare); assay: batch resin-slurry partitioning on MabSelect Sure protein A resin; High salt wash: 10 mM NaPhosphate, pH 6.5, 0.5M NaCl; reference mAb2
[12] = biological target: MabSelect Sure Protein A ligand (protein A resin, GE Healthcare); assay: batch resin-slurry partitioning on MabSelect Sure protein A resin; Strip: 100 mM acetic acid; reference mAb1
[13] = biological target: MabSelect Sure Protein A ligand (protein A resin, GE Healthcare); assay: batch resin-slurry partitioning on MabSelect Sure protein A resin; Strip: 100 mM acetic acid; reference mAb2

log α (log KP PLBL2 - log KP mAb1) [1]	log KP (partition coefficient, bound/free) [2]	log KP (partition coefficient, bound/free) [3]	log α (log KP PLBL2 - log KP mAb2) [4]	log α (log KP PLBL2 - log KP mAb1) [5]	log KP (partition coefficient, bound/free) [6]	log α (log KP PLBL2 - log KP mAb3) [7]	log α (log KP PLBL2 - log KP mAb2) [8]	log KP (partition coefficient, bound/free) [9]	log α (log KP PLBL2 - log KP mAb1) [10]	log α (log KP PLBL2 - log KP mAb2) [11]	log α (log KP PLBL2 - log KP mAb1) [12]	log α (log KP PLBL2 - log KP mAb2) [13]	Substance
0	–	–	–	–	–	–	–	–	–	–	–	–	phospholipase B-like 2 (PLBL2)
–	0	0	-0.3	-2	0	-2	-2	0	-2	-2	0	0	phospholipase B-like 2 (PLBL2) (enzyme)
